How the values were obtained:
[1] = biological target: T1, hIGF-1R-Fc (Homo sapiens, UniProt P08069); assay: IGF-1 and IGF-2 blocking ELISA-based competition assay; assay type: binding
T1 construct: (3) human IGF-1R(1-903)-Fc (hIGF-1R-Fc, Biogen Idec); host or cells: CHO
Protocol: hIGF-1R-Fc was biotinylated using EZ-Link Sulfo-NHS-LC-Biotin according to the protocol provided by the manufacturer (Pierce Cat. No. 21335). Biotinylated human IGF-1R-Fc at 5 μg/ml was added to the wells of SigmaScreen streptavidin-coated 96-well plates (Sigma, Cat. No. M5432-5EA; Sigma-Aldrich Corp. (St. Louis, Mo., USA)) at 100 μL/well and incubated overnight at 2-8° C. The plates were then washed four times with 200 μL/well PBST. […] Dilutions were made from 1.3 μM to 10 pM for M13-C06 and M14-C03, from 5.2 μM to […] for M14-G11, and from 2.6 μM to 10 pM for both P1E2 and αIR3. Human IGF-2 His was prepared at 320 nM in PBST, 1.0 mg/ml BSA. The antibodies were serial diluted (from […] to 5 pM for M13-C06 and M14-C03, from 5.2 μM to 5 pM for M14-G11 and αIR3, and from 5.2 μM to 20 pM for P1E2) using a solution of 320 nM IGF-2 His. The dilutions were added to the plates in duplicate at 100 μL/well and the plates were incubated at RT for 1 hour. The plates were then washed four times with 200 μL/well PBST. An HRP-conjugated anti-Histag antibody (Penta-His HRP Conjugate, QIAGEN, Cat. No. 1014992) was diluted 1:1000 in PBST and added to plates at 100 μL/well, and the plates were incubated at RT for one hour. […] The absorbance of each well was determined at 450 nm, and the results were normalized and plotted against the log of antibody concentration.

[2] = biological target: T2, recombinant human IGF-1R-10His (Homo sapiens, UniProt P08069); assay: SPR, antibodies and Fabs on IGF-1R-His captured via PENTA-His antibody; assay type: binding; settings: full-length antibodies, 64 nM to 0.5 nM
T2 construct: denoted hIGF-1R(1-902)-His10, was purchased from R&D systems (Cat. No. 305-GR-050); purchased R&D Systems 305-GR-050

[3] = biological target: T3, hIGF-1R(1-462)-Fc (Homo sapiens, UniProt P08069); assay: SPR binding of immobilized antibodies to truncated hIGF-1R(1-462)-Fc versus hIGF-1R(1-903)Fc; settings: surface immobilized antibody
T3 construct: host or cells: CHO
Excerpt: Next, we investigated whether M13-C06 binds the putative ligand binding domains of IGF-1R (L1-CR-L2). We generated a truncated version of the receptor containing the N-terminal three domains (residues 1-462) fused to an IgG1-Fc and compared its ability to bind M13-C06, M14-C03, and M14-G11 to that of the full-length receptor ectodomain construct, hIGF-1R-Fc, using surface plasmon resonance (SPR).

[4] = biological target: T4, human IGF-1R(1-902)-His10 (Homo sapiens, UniProt P08069); assay: SPR, receptor ectodomain injected over immobilized antibodies: hIGF-1R-His10; assay type: binding; settings: full-length fully human antibodies; even at the lowest concentration
T4 construct: human IGF-1R(1-902)-His10 (hIGF-1R-His10 (R&D systems)); purchased R&D systems 305-GR-050
Protocol: (§1) SPR analyses were performed using a Biacore3000. The instrument was set to 25° C. and assays performed with running buffer HBS-EP pH 7.2 purchased from Biacore (Biacore, Cat. No. BR-1001-88). The fully human antibodies, M13-C06, M14-C03, and M14-G11 were immobilized to ˜10,000 RU on Biacore CM5 Research Grade Sensor Chip surfaces using the standard NHS/EDC-amine reactive chemistry according to protocols supplied by Biacore. For immobilization, the antibodies were diluted to 40 μg/mL in a 10 mM Acetate pH 4.0 buffer. To investigate the relative kinetics of association and dissociation of the full-length ectodomains of human IGF-1R(1-902)-His10 (hIGF-1R-His10 (R&D systems)) and human INSR(28-956)-His10 (INSR (R&D systems)) to each of the human antibodies, increasing concentrations of hIGF-1R-His10 or INSR were injected over the sensorchip surfaces. The hIGF-1R-His10 concentration series ranged from 1.0 nM to 250 nM while the INSR concentrations ranged from 1.0 nM to 2 μM. All antibody surfaces were reliably regenerated with 100 mM Glycine, pH 2.0. […] Flow rates were 20 μl/min. (“His10” denotes a 10-residue histidine tag on the C-terminus of the constructs.)

[5] = biological target: T5, human INSR(28-956)-His10 (Homo sapiens, UniProt P06213); assay: SPR, receptor ectodomain injected over immobilized antibodies: INSR; assay type: binding; settings: full-length fully human antibodies; up to 2 μM receptor
T5 construct: human INSR(28-956)-His10 (INSR (R&D systems)); purchased R & D Systems 1544-IR
Protocol: as §1

binding to immobilized recombinant human IGF-1R (SPR) [2]: strong binding
binding to truncated hIGF-1R(1-462)-Fc compared with full-length hIGF-1R-Fc [3]: dramatically reduced
binding of hIGF-1R-His10 to immobilized antibody surface [4]: demonstrated binding
binding of INSR to immobilized antibody surface [5]: little binding activity
B1: M14-C03: anti-IGF-1R antibody, allosteric blocker of IGF-1 and IGF-2 (antibody, V domains shown)
VH: EVQLLESGGGLVQPGGSLRLSCAASGFTFSKYMMSWVRQAPGKGLEWVSYISPSGGLTWYADSVKGRFTISRDNSKNTLYLQMNSLRAEDTAVYYCARDGARGYGMDVWGQGTTVTVSS
VL: DIQMTQSPATLSLSPGERATLSCRASQSVSSYLAWYQQKPGQAPRLLIYDASNRATGIPARFSGSGSGTDFTLTISSLEPEDFAVYYCQQRSNWPPEVTFGPGTKVDIK
modifications: Antibody variable heavy chain sequence; Antibody variable light chain sequence
blocking of IGF-1 binding to IGF-1R ([1]; 320 nM IGF-1 His): block both IGF-1 and IGF-2 binding to IGF-1R
blocking of IGF-2 binding to IGF-1R ([1]; 320 nM IGF-2 His): block both IGF-1 and IGF-2 binding to IGF-1R
